According to US20230364186A1 (CURA THERAPEUTICS, published 2023):
Each block holds one molecule with its values, some of them ahead of it.

Legend:
Human active TGFβ1 = biological target: T1, Human active TGFβ1 (human, UniProt P01137 279-390); assay: blocking of active TGFβ1 (1 ng/mL) in solution, 30 min in PBS; free TGFβ1 by ELISA
T1 construct: mature; also called TGFB1
From the text: TGFβ causes a wide range of immune suppression in several immune cell types including inhibition of crucial early innate IFN responses.

active TGFβ3 = active TGFβ3 (UniProt P10600); assay: blocking of active TGFβ3 (1 ng/mL) in solution, 30 min in PBS; free TGFβ3 by ELISA
Sequence of active TGFβ3 (P10600 301-412): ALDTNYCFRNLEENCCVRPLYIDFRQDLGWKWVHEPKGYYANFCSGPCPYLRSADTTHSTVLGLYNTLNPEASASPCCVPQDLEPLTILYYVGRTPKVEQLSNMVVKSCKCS

T1 sequence (P01137 279-390 limits assumed): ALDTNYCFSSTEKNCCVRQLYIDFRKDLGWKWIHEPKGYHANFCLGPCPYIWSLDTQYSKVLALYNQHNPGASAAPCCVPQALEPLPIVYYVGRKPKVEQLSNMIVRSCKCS

IC50 (Human active TGFβ1): 1.29 nM
IC50 (active TGFβ3): 3.6 nM
Molecule: FIST (monovalent FIST; IL2-sTBRII)

IC50 (Human active TGFβ1): 0.02 nM
B1: TβRII isoform 2 (receptor, UniProt P37173-2 24-184, looked up)
chain: IPPHVQKSDVEMEAQKDEIICPSCNRTAHPLRHINNDMIVTDNNGAVKFPQLCKFCDVRFSTCDNQKSCMSNCSITSICEKPQEVCVAVWRKNDENITLETVCHDPKLPYHDFILEDAASPKCIMKEKKKPGETFFMCSCSSDECNDNIIFSEEYNTSNPD
notes: also called TβRll (isoform II); control (TβRII isoform 2)
